The assay concerns the target Dictyostelium myosin II (bipolar filaments) (Dictyostelium discoideum) (UniProt P08799).

B1: GST-B-Δ-WD, MHCK-B truncation lacking only the WD-repeat domain (amino acids 1-450) (domain or fragment)
chain: MIFKVWFSYEDEEVELSELTNDTTVSAIRKILHEGKIFRFPYGTSQTDLQIGKMLPSGSGGGATADSKFEKFKARNTLADIQYKVGDTLYVRVKKSKPTNDSLLPTLNIAFLDGSERAIKWEYDPYTTTAQWTCTATLVKVEPVPFAEGAFRKAYHTLDLSKSGASGRYVSKIGKKPTPRPSYFEDVKMQMIAKKWADKYNSFKPPKKIEFLQSCVLEFVDRTSSDLICGAEPYVEGQYRKYNNNSGFVSNDERNTPQSFSHFTYEHSNHQLLIIDIQGVGDHYTDPQIHTYDGVGFGIGNLGQKGFEKFLDTHKCNAICQYLNLQSINPKSEKSDCGTVPRPDLIFPDTSERDNNNNNNNNNNNNNNNNNNNSNNNNNNNSSISKSLVEISSGSKERNDRDSPSRQLFVSNDGNTLNTNKERSKSKSIDLEKPEILINNKKKESINLET
Regarding B1, the phosphorylation of MHC in a kinase assay (50 nM kinase, 1.0 μM myosin II), against the full-length kinase (% of the full-length kinase) turned out to be 30.

(Values after paper PMC2838905.)
